For orientation: IC50 means the concentration needed to halve the response being measured. The term Kd denotes a measure of binding affinity in units of concentration.

From the Immune Epitope Database (IEDB) come the findings set out here.

What all share (conditions): source organism: Influenza A virus (A/Puerto Rico/8/1934(H1N1))
One test deals with HLA-A*02:01. As to the kind of experiment: IEDB peptide-MHC binding, purified MHC/competitive/radioactivity; ≥ and ≤ were set here for values at or beyond the usual limits of such assays.
In another test the target is HLA-B*07:02. Described as above.
The target in another test is HLA-A*11:01. The description is as above.
The next test addresses HLA-A*03:01. The test is described as above.
The next test has as its target HLA-A*31:01. Described as above.
Test [1] has as its target HLA-A*68:01. As to the kind of experiment: IEDB peptide-MHC binding, purified MHC/competitive/radioactivity; filed as Kd, often an IC50 or EC50 that approximates it; ≥ and ≤ were set here for values at or beyond the usual limits of such assays.
For test [2], the target named is HLA-A*68:01. As to the kind of experiment: IEDB peptide-MHC binding, purified MHC/competitive/radioactivity; ≥ and ≤ were set here for values at or beyond the usual limits of such assays.
Test [3] deals with HLA-A*33:01. As to the kind of experiment: IEDB peptide-MHC binding, purified MHC/competitive/radioactivity; filed as Kd, often an IC50 or EC50 that approximates it; ≥ and ≤ were set here for values at or beyond the usual limits of such assays.
For test [4], the target named is HLA-A*33:01. As to the kind of experiment: IEDB peptide-MHC binding, purified MHC/competitive/radioactivity; ≥ and ≤ were set here for values at or beyond the usual limits of such assays.

On to ALKMTMASV, for which the IC50 with HLA-A*02:01 came out at 225 nM.
Turning to APPKQSRMQF, in the test with HLA-B*07:02, the IC50 came to 24 nM.
As to APSPYNSRF, the IC50 in the test with HLA-B*07:02 turned out to be 19.2 nM.
Turning to AVGKEFNKLEK, in the test with HLA-A*11:01, the IC50 amounted to 130 nM.
On to CIYRRFKYFLK, for which, in the test with HLA-A*11:01, the IC50 worked out at 231 nM.
As to CLLQSLQQI, the IC50 with HLA-A*02:01 came out at 159 nM.
Regarding CPKYVRSAKL, the IC50 in the test with HLA-B*07:02 amounted to 344 nM.
Take FLWHVRKRV: the IC50 in the test with HLA-A*02:01 came out at 204 nM.
In the case of FPNEVGARIL, the concentration for half-maximal inhibition (IC50) with HLA-B*07:02 turned out to be 365 nM.
In the case of FPSSSYRRPV, the IC50 with HLA-B*07:02 was 20.9 nM.
GIAPLQLGK: the IC50 is 18 nM in the test with HLA-A*03:01, 30 nM with HLA-A*11:01 and 281 nM with HLA-A*31:01. The Kd with HLA-A*68:01 [1] is 1180 nM.
Consider GIHHPSNSK, for which the IC50 with HLA-A*11:01 was 429 nM.
As for GMFNMLSTV, the IC50 in the test with HLA-A*02:01 was 28 nM.
As for GMGWLTIGI, the IC50 in the test with HLA-A*02:01 was 133 nM.
As for GPALSINEL, the half-inhibitory concentration (IC50) with HLA-B*07:02 is 119 nM.
On the same count and under the same terms, the figure for GPDNGAVAVL is 498 nM.
Regarding GPPCSQRSKF, in the test with HLA-B*07:02, the IC50 was determined as 270 nM.
The same measure, in the same setting: the figure for GPVHFRNQV is 71.4 nM.
For GTHPSSSAGLK, the IC50 in the test with HLA-A*11:01 stood at 94 nM.
On the same count and under the same terms, the figure for ILWILDRLFFK is 21 nM.
With IPKQKVAGPL, the IC50 with HLA-B*07:02 turned out to be 42.4 nM.
ITNKVNSVIEK: the IC50 in the test with HLA-A*11:01 is 90 nM.
In the case of KLESMGIYQI, in the test with HLA-A*02:01, the IC50 was 434 nM.
As for KMNIQFTAV, the 50% inhibitory concentration (IC50) in the test with HLA-A*02:01 stood at 150 nM.
Regarding KTRPILSPLTK, the concentration for half-maximal inhibition (IC50) with HLA-A*11:01 is 120 nM.
With LILRGSVAHK, the IC50 with HLA-A*11:01 came to 188 nM.
Turning to LLLEVEQEI, the IC50 in the test with HLA-A*02:01 came out at 213 nM.
Same read-out and setting: as for LLTEVETPI, the figure is 24 nM.
Still for that read-out and setting: as for LMDALKLSI, the figure is 40 nM.
LPACVYGPAV: the half-maximal inhibitory concentration (IC50) in the test with HLA-B*07:02 worked out at 220 nM.
Turning to LPRRSGAAGA, the IC50 with HLA-B*07:02 is 76.3 nM.
The same measure, in the same setting: as for LPSLPGHTA, the figure is 41 nM; as for LPVRSWSYIV, 207 nM.
Regarding MLSTVLGVSI, the IC50 in the test with HLA-A*02:01 came out at 252 nM.
As to NIQFTAVGK, the IC50 with HLA-A*11:01 turned out to be 182 nM.
For NLYNIRNLHI, the IC50 with HLA-A*02:01 amounted to 61 nM.
Regarding NPALRMKWM, the IC50 with HLA-B*07:02 is 59.5 nM.
On the same count and under the same terms, the figure for NPRMFLAMI is 10.1 nM.
With RMNYYWTLLK, the IC50 with HLA-A*11:01 was determined as 2.6 nM.
For the sequence RMQFSSFTV, the half-inhibitory concentration (IC50) with HLA-A*02:01 is 28 nM.
Consider RPCFWVELI, for which, in the test with HLA-B*07:02, the IC50 was found to be 67.1 nM.
Take RPWVSFDQNL: the IC50 with HLA-B*07:02 turned out to be 397 nM.
In the case of RTLDFHDSNVK, the IC50 with HLA-A*03:01 worked out at 141 nM; with HLA-A*11:01, 50 nM; with HLA-A*31:01, 1500 nM; in the test with HLA-A*68:01 [2], 2290 nM. Moreover, the dissociation constant Kd with HLA-A*33:01 [3] came out at 6300 nM.
With RVLSFIKGTK, the IC50 in the test with HLA-A*03:01 came out at 13.8 nM; with HLA-A*11:01, 72 nM; in the test with HLA-A*31:01 it was 333 nM; with HLA-A*33:01 [4], 1320 nM; with HLA-A*68:01 [2], 471 nM.
SIIPSGPLK: the IC50 with HLA-A*03:01 is 14 nM; in the test with HLA-A*31:01, 4290 nM; with HLA-A*68:01 [2], 108 nM.
SLLTEVETYV: the IC50 with HLA-A*02:01 amounted to 38 nM.
Consider SLPFQNIHPV, for which the IC50 in the test with HLA-A*02:01 amounted to 96 nM.
Same read-out and setting: the figure for SMIEAESSV is 160 nM.
As for SPGMMMGMF, the IC50 in the test with HLA-B*07:02 was found to be 137 nM.
Same read-out and setting: as for SPKGVEESSI, the figure is 215 nM; as for SPYNSRFESV, 41.4 nM.
On to STDTVDTVLEK, for which the IC50 in the test with HLA-A*11:01 stood at 90 nM.
Regarding SVRNGTYDYPK, the concentration for half-maximal inhibition (IC50) in the test with HLA-A*11:01 is 43 nM.
Regarding TMVMELVRMIK, the figures for the IC50 in the test with HLA-A*03:01, in the test with HLA-A*11:01 and with HLA-A*31:01 were 124 nM, 194 nM and 1290 nM, respectively.
On to TPLGAINSSL, for which, in the test with HLA-B*07:02, the IC50 is 34.9 nM.
Consider VLLVSLGAI, for which, in the test with HLA-A*02:01, the concentration for half-maximal inhibition (IC50) stood at 290 nM.
For the sequence VPASRYLTDM, the concentration for half-maximal inhibition (IC50) in the test with HLA-B*07:02 is 13.6 nM.
Regarding WILDRLFFK, the IC50 in the test with HLA-A*11:01 turned out to be 7.6 nM.
Take WMMAMKYPI: in the test with HLA-A*02:01, the IC50 came out at 72 nM.
YPKLKNSYV: the IC50 with HLA-B*07:02 is 176 nM.
